Source: patent US20050182242A1, “Global analysis of protein activities using proteome chips” (priority 2001, published 2005)

B1: MPD2: yeast GST-HisX6 fusion protein on proteome chip (protein, UniProt Q99316 23-277, looked up)
Protein disulfide isomerase …: YSEAVTMVKSIEQYFDICNRNDSYTMIKYYTSWCQHCKTLAPVYEELGELYAKKANKDDTPINFLEVNCEFFGPTLCTDLPGFPIIELVKPRTKPLVLPKLDWSSMKFHERLWQRIKTWFNNPKYQLDTSRVVRFEGSRNLKSLSNFIDTVRSKDTEERFIEHIFDDSRNCNEELRSQQLLCKAGKEYYSDTLSKLYGDVNGLEKERRRLEALIKQNGDDLSKEVKEKLKIIRLQLSLLSHIEDQLEDTSSHDEL
modifications: GST-His6 tag
notes: yeast GST-HisX6 fusion protein on proteome chip
B2: GFD1: yeast GST-HisX6 fusion protein on proteome chip (protein, UniProt Q04839 1-188, looked up)
mRNA transport factor GFD1: MPLESIWADAPDEEPIKKQKPSHKRSNNNKKNNNSRWSNESSSNNKKKDSVNKVKNNKGNHESKTKNKIKETLPREKKPPHSQGKISPVSESLAINPFSQKATEISPPPVSPSKMKTTKTQSKQDTASKMKLLKKKIEEQREILQKTHHKNQQQQVLMDFLNDEGSSNWVDDDEEELILQRLKTSLKI
modifications: GST-His6 tag
notes: as for B1
B3: RPL9B: yeast GST-HisX6 fusion protein on proteome chip (protein, UniProt P51401 1-191, looked up)
Large ribosomal subunit …: MKYIQTEQQIEIPEGVTVSIKSRIVKVVGPRGTLTKNLKHIDVTFTKVNNQLIKVAVHNGDRKHVAALRTVKSLVDNMITGVTKGYKYKMRYVYAHFPINVNIVEKDGAKFIEVRNFLGDKKIRNVPVRDGVTIEFSTNVKDEIVLSGNSVEDVSQNAADLQQICRVRNKDIRKFLDGIYVSHKGFIVEDM
modifications: GST-HisX6 tag
notes: as for B1
B4: DFG5: yeast GST-HisX6 fusion protein on proteome chip (protein, UniProt Q05031 27-437, looked up)
Mannan …: MDLDTTSKTSICDATALIQGGMLDYYEGTRYGGTVGMFQSPYYWWHAGEAFGGMLENWFLCENDTYQELLYDALLAQTGSNYDYIPSNQTMVEGNDDQGIWGITVMGAVERNFTDPGDGKPGWLAMVQAVFNTMYSRWDSEHCGGGLRWQIFTWNSGYNYKNTVSNACLFQIAARLGRYTGNTTYLEVAEQVFDWLVDVGYVVLNDTANVFDGAEIDTNCTDITKIEWTYNHGIVLGGLAYMYNATNGTGEWETSLTKILNGAKSYFFKDSIMYESACQDYGTCNTDQRTFKSIFSRMLGLTSVMAPFTRDTIDDLIKTSAEAAAKSCNGGTDGHTCGLNWQKQTNDGYYGLGEQMSALEVIQNLLIHDRPAPYKEDNGGTSKGDANAGMNSSTTNVLQNNLNIKKGDRAG
modifications: GST-His6 tag
notes: as for B1
B5: CCT8: yeast GST-HisX6 fusion protein on proteome chip (protein, UniProt P47079 1-568, looked up)
T-complex protein 1 subunit …: MSLRLPQNPNAGLFKQGYNSYSNADGQIIKSIAAIRELHQMCLTSMGPCGRNKIIVNHLGKIIITNDAATMLRELDIVHPAVKVLVMATEQQKIDMGDGTNLVMILAGELLNVSEKLISMGLSAVEIIQGYNMARKFTLKELDEMVVGEITDKNDKNELLKMIKPVISSKKYGSEDILSELVSEAVSHVLPVAQQAGEIPYFNVDSIRVVKIMGGSLSNSTVIKGMVFNREPEGHVKSLSEDKKHKVAVFTCPLDIANTETKGTVLLHNAQEMLDFSKGEEKQIDAMMKEIADMGVECIVAGAGVGELALHYLNRYGILVLKVPSKFELRRLCRVCGATPLPRLGAPTPEELGLVETVKTMEIGGDRVTVFKQEQGEISRTSTIILRGATQNNLDDIERAIDDGVAAVKGLMKPSGGKLLPGAGATEIELISRITKYGERTPGLLQLAIKQFAVAFEVVPRTLAETAGLDVNEVLPNLYAAHNVTEPGAVKTDHLYKGVDIDGESDEGVKDIREENIYDMLATKKFAINVATEAATTVLSIDQIIMAKKAGGPRAPQGPRPGNWDQED
modifications: GST-His6 tag
notes: as for B1
B6: CAM1: yeast GST-HisX6 fusion protein on proteome chip (protein, UniProt P29547 2-415, looked up)
Elongation factor 1-gamma 1: SQGTLYANFRIRTWVPRGLVKALKLDVKVVTPDAAAEQFARDFPLKKVPAFVGPKGYKLTEAMAINYYLVKLSQDDKMKTQLLGADDDLNAQAQIIRWQSLANSDLCIQIANTIVPLKGGAPYNKKSVDSAMDAVDKIVDIFENRLKNYTYLATENISLADLVAASIFTRYFESLFGTEWRAQHPAIVRWFNTVRASPFLKDEYKDFKFADKPLSPPQKKKEKKAPAAAPAASKKKEEAKPAATETETSSKKPKHPLELLGKSTFVLDDWKRKYSNEDTRPVALPWFWEHYNPEEYSLWKVTYKYNDELTLTFMSNNLVGGFFNRLSASTKYMFGCLVVYGENNNNGIVGAVMVRGQDYVPAFDVAPDWESYDYAKLDPTNDDDKEFINNMWAWDKPVSVNGEPKEIVDGKVLK
modifications: GST-His6 tag
notes: as for B1
B7: DIN7: yeast GST-HisX6 fusion protein on proteome chip (protein, UniProt Q12086 1-430, looked up)
DNA damage-inducible protein …: MGIPGLLPQLKRIQKQVSLKKYMYQTLAIDGYAWLHRASCACAFELVMNKPTNKYLQFFIKRLQLLKRLKIKPYIVFDGDSLFVKNHTETRRRKKRLENEMIAKKLWSAGNRYNAMEYFQKSVDITPEMAKCIIDYCKLHSIPYIVAPFEADPQMVYLEKMGLIQGIISEDSDLLVFGCKTLITKLNDQGKALEISKDDFSALPENFPLGELSEQQFRNLVCLAGCDYTSGIWKVGVVTAMKIVKRYSEMKDILIQIERTEKLCFSKAFKQQVEFANYAFQYQRVFCPLSNQITTLNNIPKAVTNSHAEIIKIMKCIGSVVERGSGVRKDVINTKNIDHKVHEMIAKGELHPVDMASKLINRERKLKARKLFKVGLLGGESNSFNKKVEQPLVDTQDVLSERENSLDNKNASSIYMTSPAAISGTVPSIF
modifications: GST-His6 fusion tag
notes: as for B1

Columns and labels:
Settings in all cases: liposome binding signal on yeast proteome chip, Cy3-streptavidin detection
[1] = tested on: phosphatidylcholine (PC) liposomes; test: Yeast proteome chip probed with PC liposomes
Excerpt: (§1) To identify PI-binding proteins in yeast, liposomes were used as probes because the liposome provides the most relevant physiological condition to assay the interactors. Six types of liposomes were used. Each contains phosphatidylcholine (“PC”) with 1% (w/w) N-(biotinoyl)-1,2-dihexadecanoyl-sn-glycero-3-phosphoethanolamine, triethylammonium salt (biotin DHPE). The biotinylated lipid serves as a label that can be detected by Cy3-streptavidin (21). In addition to PC, the five other liposomes contain either 5% (w/w) PI(3)P, PI(4)P, PI(3,4)P2, PI(4,5)P2, or PI(3,4,5)P3 (FIG. 3A).
(§2) The protein-liposome interaction was assayed as follows. Appropriate amounts of each lipid in chloroform were mixed and dried under nitrogen. The lipid mixture was resuspended in TBS buffer by vortexing. The liposomes were created by sonication. Blocked proteome chips were washed three to five times in PBS buffer, and the extra liquid on the glass surface was removed by tapping the slides vertically on a KIMWIPE™. 200 μl of liposome solution was added to the proteome chip and immediately covered by a hydrophobic plastic cover slip (GRACE BIO-LAB™, USA). After trapped air bubbles were removed, the chip was incubated in a humidity chamber at RT for one hour. To remove the cover slip, the chip was immersed into large volume of PBS buffer (50 ml), so that the slip would float away. The chip was then moved to a second PBS bath (>50 ml) and washed 3×5 min with shaking at RT. After removing extra liquid on the surface of the chip, about 100 μl of Cy3 or Cy5 conjugated streptavidin (PIERCE™, USA; 1:2000 to 1:4000 dilution) was added to the surface and covered by a hydrophobic plastic cover slip (GRACE BIO-LABS™, USA). The chip was incubated for greater than 30 min in the dark at RT. The chip was then washed as described above. To completely remove the liquid on the chip, the chip was spun to dryness at 1500-2000 rpm for 5-10 min at RT.
(§3) • 1. S. Fields, Y. Kohara, D. J. Lockhart, Proc. Natl. Acad. Sci. 96, 8825 (1999); A. Goffeau et al., Science 274, 563 (1996). • 2 P. Ross-Macdonald et al., Nature 402, 413 (1999); J. L., DeRisi, V. R. Iyer, P. O. Brown, Science 278, 680 (1997); E. A. Winzeler et al., Science 285, 901 (1999). P. Uetz et al., Nature 403, 623 (2000); T. Ito et al., Proc. Natl. Acad. Sci. USA. 97, 1143 (2000) • 3 H. Zhu, M. Snyder, Curr. Opin. Chem. Biol. 5, 40 (2001). • 4 M. R. Martzen et al., Science 286, 1153 (1999). • 5 H. Zhu et al., Nat. Genet. 26, 283 (2000). • 6 G. MacBeath, S. L. Schreiber, Science 289, 1760 (2000). • 7 A. Caveman, J. Cell Sci. 113, 3543 (2000). • 8 P. Arenkov et al., Anal. Biochem 278, 123 (2000). • 9 D. A. Mitchell, T. K. Marshall, R. J. Deschenes, Yeast 9, 715 (1993). The expression vector pEGH was created by inserting an RGS-HisX6 epitope tag between the GST gene and the polycloning site of pEG(KG). The yeast ORFs were cloned using the strategy described previously (5), except every step was done in a 96-well format. Plasmid DNAs confirmed by DNA sequencing were reintroduced into both yeast (Y258) and E. coli (DH5a). […] 0.1 mM calcium was present in buffers in all subsequent steps. The chip was washed three times with PBS at RT. Cy3-conjugated streptavidin (Jackson IR, USA) (1:5000 dilution) was added to the chip and incubated for 30 min at RT. After extensive washing, the chip was spun dry and scanned using a microarray scanner; the data was subsequently acquired with the GENEPIX™ array densitometry software (Axon, USA). • 12 S. S. Hook, A. R. Means, Annu. Rev. Pharmacol. Toxicol.41, 471 (2001). • 13 M. S. Cyert, R. Kunisawa, D. Kaim, J. Thorner, Proc. Natl. Acad. Sci. USA 88, 7376 (1991). • 14 D. A. Stirling, K. A. Welch, M. J. Stark, EMBO J. 13, 4329 (1994). • 15 F. Bohl, Kruse, EMBO J. 19, 5514 (2000); E. Bertrand et al., Mol. Cell 2, 437 (1998). • 16 D. C. Winter, E. Y. Choe, R. Li, Proc. Nat. Acad Sci. USA 96, 7288 (1999). • 17 C.

PI(3,4,5)P3 liposomes = test: Yeast proteome chip probed with PI(3,4,5)P3 liposomes
Excerpt: as §1, §2, §3

PI(3,4)P2 liposomes = test: Yeast proteome chip probed with PI(3,4)P2 liposomes
Excerpt: as §1, §2, §3

PI(4,5)P2 liposomes = test: Yeast proteome chip probed with PI(4,5)P2 liposomes
Excerpt: as §1, §2, §3

PI(4)P liposomes = test: Yeast proteome chip probed with PI(4)P liposomes
Excerpt: as §1, §2, §3

Row | Molecule | PC [1] | PI(3, 4, 5)P3 (PI(3,4,5)P3 liposomes) | PI(3, 4)P2 (PI(3,4)P2 liposomes) | PI(4, 5)P2 (PI(4,5)P2 liposomes) | PI(4)P (PI(4)P liposomes)
1 | B1 | 25.24 | 15.07 | 31.71 | 8.71 | 37.45
2 | B2 | 4.99 | 3.38 | −0.78 | – | −0.22
3 | B3 | 6.46 | −0.45 | 7.38 | 1.96 | 12.85
4 | B4 | 127.66 | 60.98 | 48.66 | – | 19.81
5 | B5 | 22.30 | 33.97 | 7.53 | – | 23.52
6 | B6 | 18.49 | 4.16 | −0.16 | 25.69 | 21.99
7 | B7 | 21.42 | 14.06 | 10.05 | 14.59 | 33.75
